Data on one substance can be found in patent US20030068416A1, “Method of lyophylization to reduce solvent content and enhance product recovery” (priority 2001, published 2003).

What all share (assay type): physicochemical
Data set [1] is described as follows: Residual solvent content of trypsin after lyophilization (Example 1). To be noted: primary and secondary drying cycles, 62 hours. How it is done:
(§1) When the solvent is water, the residual solvent content referenced herein refer to levels determined by the FDA approved, modified Karl Fischer method (Meyer and Boyd, Analytical Chem., 31:215-219, 1959; May, et al., J. Biol. Standardization, 10:249-259, 1982; Centers for Biologics Evaluation and Research, FDA, Docket No. 89D-0140, 83-93; 1990) or by near infrared spectroscopy.
1 ml aliquots of trypsin alone or with 100 mM sodium ascorbate were placed in 3 ml vials. Samples were prepared in triplicate and subjected to lyophilization (primary and secondary drying cycles; 62 hours).

The nature of data set [2]: Residual solvent content of trypsin after lyophilization, sampled after primary drying and at end of cycle (Example 2). As to the method: as §1
1 ml aliquots of trypsin alone or with 100 mM sodium ascorbate were placed in 3 ml vials. Samples were prepared in triplicate and subjected to lyophilization. Samples were removed (using sample thief) at the end of primary drying (22 hours after start of the cycle), the cycle continued to completion (62 hours after start of cycle) at this time vials were sealed under vacuum and removed from the freeze dryer.

Data set [3] in a line: Residual solvent content of trypsin frozen overnight at -70 C and lyophilized (Example 3). To be noted: frozen overnight at -70 C before lyophilization. As to the method:
as §1
1 ml aliquots of trypsin alone or with 100 mM sodium ascorbate were placed in 3 ml vials and frozen overnight at −70° C. Samples were prepared in quadruplicate and subjected to lyophilization. Samples were removed (using sample thief) at the end of primary drying (22 hours after start of the cycle), the cycle continued to completion (62 hours after start of cycle) at this time vials were sealed under vacuum and removed from the freeze dryer.

As to trypsin, the residual solvent content entry in data set [1] (absence of sodium ascorbate) is “about 1.8 % water”; in data set [1] (presence of 100 mM sodium ascorbate) it was “about 0.7 % water”; in data set [2] (absence of sodium ascorbate, following a primary drying cycle alone (22 hours)) it was “about 5.8 % water”; in data set [2] (absence of sodium ascorbate, following primary and secondary drying cycle (62 hours)) it was “about 5.4 % water”; in data set [2] (presence of 100 mM sodium ascorbate, following a primary drying cycle alone (22 hours)), “about 2.8 % water”; in data set [2] (presence of 100 mM sodium ascorbate, following primary and secondary drying cycle (62 hours)), “about 1.1 % water”. The residual solvent content entry in data set [3] (absence of ascorbate) is on record as “about 3.9 % water”; in data set [3] (presence of ascorbate (100 mM sodium ascorbate)) it was 0.7 % water.
